Assay results as given in article PMC10836395, “Investigation of how gate residues in the main channel affect the catalytic activity of Scytalidium thermophilum catalase” (Acta Crystallographica. Section D, Structural Biology, 2024).
Read-outs that look alike come from different tables or passages of the source.

Tests used:
CATPO = CATPO (Scytalidium thermophilum (Humicola insolens), UniProt M4GGR5); test: Inhibition of catechol oxidation; format: biochemical
CATPO E484A variant = CATPO E484A variant (Scytalidium thermophilum (Humicola insolens), UniProt M4GGR5, E503A); test: biochemical; settings: catechol oxidation by E484A; read-out: K i
CATPO E484D variant = CATPO E484D variant (Scytalidium thermophilum (Humicola insolens), UniProt M4GGR5, E503D); test: biochemical; settings: catechol oxidation by E484D; read-out: K i
CATPO E484I variant = CATPO E484I variant (Scytalidium thermophilum (Humicola insolens), UniProt M4GGR5, E503I); test: biochemical; settings: catechol oxidation by E484I; read-out: K i
CATPO T188A variant = CATPO T188A variant (Scytalidium thermophilum (Humicola insolens), UniProt M4GGR5, T207A); test: biochemical; settings: catechol oxidation by T188A; read-out: K i
CATPO T188D variant = CATPO T188D variant (Scytalidium thermophilum (Humicola insolens), UniProt M4GGR5, T207D); test: biochemical; settings: catechol oxidation by T188D; read-out: K i
CATPO T188F variant = CATPO T188F variant (Scytalidium thermophilum (Humicola insolens), UniProt M4GGR5, T207F); test: biochemical; settings: catechol oxidation by T188F; read-out: K i
CATPO T188I variant = CATPO T188I variant (Scytalidium thermophilum (Humicola insolens), UniProt M4GGR5, T207I); test: biochemical; settings: catechol oxidation by T188I; read-out: K i
mammalian catalase = target: mammalian catalase; design: method as in Vetrano et al., 2005; settings: ref Vetrano et al., 2005; cited from earlier work
CATPO variants = test: Effects on the phenol oxidase activity of the CATPO variants taken together; format: biochemical, Scytalidium thermophilum; settings: hydrogen peroxide 1–100 mM or ethanol 2–200 mM, before or after the addition of catechol
Experimental: (§1) All inhibition assays were performed in triplicate.

[1] = substrate: CCn1c(=NN=c2sc3cc(S(=O)(=O)O)ccc3n2CC)sc2cc(S(=O)(=O)O)ccc21; test: purified protein, by the assay type; settings: 60.0 °C
[2] = substrate: CC(C)(C)c1ccc(O)c(O)c1; test: Spectrophotometric phenol oxidase assay without H2O2 at pH 7.0 and 60 °C, initial rates fitted to the Michaelis-Menten equation.; format: biochemical
Experimental: as §1

[3] = substrate: Cc1ccc(O)c(O)c1; test: as above; format: biochemical
Experimental: as §1

[4] = substrate: Oc1ccc(O)cc1; test: as above; format: biochemical
Experimental: as §1

[5] = substrate: Oc1ccccc1O; test: Spectrophotometric catechol oxidation assay at 420 nm, pH 7.0 and 60 °C; values not normalized to heme content.; format: biochemical
Experimental: as §1
Tabl e S1 Comparison of gate residues at the entrance of the main channel among large subunit […]
PDB ID e Organism Gate residues
Tabl e S2 K i neti c const ant s
**Catalase activity **Phenol oxidase activity
*KM-app kcat kcat/*KM-app KM kcat kcat/KM
(mM) (s-1) (s-1 M-1) (mM) (s-1) (s-1 M-1) Rz Heme
RZ = A407/A280. T he values were normalized to heme content in each CAT PO variant. T he values in parentheses are for unnor malized val ues a nd shaded in gre y for ease of vie wi ng. *KM-app is the H2O2 concentratio n at Vmax/2 […]
Michaelis–Menten kinetics (Switala & Loewen, 2002).
**One unit of catalase is defined as the amo unt that catalyses the degradation o f 1 µmol H2O2 in 1 min. One unit of phenol oxidase corresponds to the enzyme catalysing the formation of 1 nmol of product per minute.

[6] = substrate: Oc1ccccc1O; test: Phenol oxidase activity (H2O2-independent) measured spectrophotometrically by product formation at pH 7.0, 60 C, Michaelis-Menten fit.; format: biochemical
Experimental: as §1

[7] = substrate: Oc1ccccc1O; test: as above; format: biochemical; remark: listed apart in the source

| Molecule | effect of addition on phenol oxidase activity (CATPO variants) | Km [1] | Km [2] | Km [3] | Km [4] | Km [5] | Km [6] | kcat [6] | kcat/Km [6] | also measured |
| --- | --- | --- | --- | --- | --- | --- | --- | --- | --- | --- |
| [F-].[Na+] [NaF, sodium fluoride] | – | – | – | – | – | – | – | – | – | inhibition type (CATPO; catechol oxidase activity of wild-type CATPO, Lineweaver–Burk): uncompetitive; Ki (CATPO; catechol oxidation by CATPO, catechol 1 to 100 mM, read-out: K i): 0.67 ± 0.1 mM; Ki (CATPO E484A variant): 7.8 ± 1.1 mM; Ki (CATPO E484D variant): 0.66 ± 0.1 mM; Ki (CATPO E484I variant): 5.5 ± 0.2 mM; Ki (CATPO T188A variant): 0.65 ± 0.1 mM; Ki (CATPO T188D variant): 5 ± 0.5 mM; Ki (CATPO T188F variant): 6.4 ± 0.4 mM; Ki (CATPO T188I variant): 5.8 ± 0.4 mM; Ki (mammalian catalase): 0.75 mM; inhibition type (mammalian catalase): uncompetitive |
| CCO [ethanol] | not affected | – | – | – | – | – | – | – | – | – |
| OO [hydrogen peroxide] | not affected | – | – | – | – | – | – | – | – | – |
| T188D (Mycothermus thermophilus; T207D) (protein, recombinant, pET-28-TEV-CATPO; contains heme b; Rz 0.5) TCPFADPAALYSRQDTTSGQSPLAAYEVDDSTGYLTSDVGGPIQDQTSLKAGIRGPTLLEDFMFRQKIQHFDHERVPERAVHARGAGAHGTFTSYADWSNITAASFLNATGKQTPVFVRFSTVAGSRGSADTARDVHGFATRFYTDEGNFDIVGNNIPVFFIQDAIQFPDLIHSVKPRPDNEIPQAADAHDSAWDFFSQQPSTMHTLFWAMSGHGIPRSYRHMDGFGVHTFRFVKDDGSSKLIKWHFKSRQGKASLVWEEAQVLSGKNADFHRQDLWDAIESGNGPEWDVCVQIVDESQAQAFGFDLLDPTKIIPEEYAPLTKLGLLKLDRNPTNYFAETEQVMFQPGHIVRGIDFTEDPLLQGRLFSYLDTQLNRNGGPNFEQLPINMPRVPIHNNNRDGAGQMFIHRNKYPYTPNTLNSGYPRQANQNAGRGFFTAPGRTASGALVREVSPTFNDHWSQPRLFFNSLTPVEQQFLVNAMRFEISLVKSEEVKKNVLTQLNRVSHDVAVRVAAAIGLGAPDADDTYYHNNKTAGVSIVGSGPLPTIKTLRVGILATTSESSALDQAAQLRTRLEKDGLVVTVVAETLREGVDQTYSTADATGFDGVVVVDGAAALFASTASSPLFPTGRPLQIFVDAYRWGKPVGVCGGKSSEVLDAADVPEDGDGVYSEESVDMFVEEFEKGLATFRFTDRFALDS | – | 55 ± 1.0 mM | 38 ± 0.5 mM | 30 ± 0.1 mM | 46 ± 1.0 mM | 33 mM | 25 ± 1.5 mM | 22300 ± 669 s⁻¹ | 890000 ± 7000 M⁻¹ s⁻¹ | – |
| T188I (Mycothermus thermophilus; T207I) (protein, recombinant, pET-28-TEV-CATPO; contains heme b; Rz 0.4) TCPFADPAALYSRQDTTSGQSPLAAYEVDDSTGYLTSDVGGPIQDQTSLKAGIRGPTLLEDFMFRQKIQHFDHERVPERAVHARGAGAHGTFTSYADWSNITAASFLNATGKQTPVFVRFSTVAGSRGSADTARDVHGFATRFYTDEGNFDIVGNNIPVFFIQDAIQFPDLIHSVKPRPDNEIPQAAIAHDSAWDFFSQQPSTMHTLFWAMSGHGIPRSYRHMDGFGVHTFRFVKDDGSSKLIKWHFKSRQGKASLVWEEAQVLSGKNADFHRQDLWDAIESGNGPEWDVCVQIVDESQAQAFGFDLLDPTKIIPEEYAPLTKLGLLKLDRNPTNYFAETEQVMFQPGHIVRGIDFTEDPLLQGRLFSYLDTQLNRNGGPNFEQLPINMPRVPIHNNNRDGAGQMFIHRNKYPYTPNTLNSGYPRQANQNAGRGFFTAPGRTASGALVREVSPTFNDHWSQPRLFFNSLTPVEQQFLVNAMRFEISLVKSEEVKKNVLTQLNRVSHDVAVRVAAAIGLGAPDADDTYYHNNKTAGVSIVGSGPLPTIKTLRVGILATTSESSALDQAAQLRTRLEKDGLVVTVVAETLREGVDQTYSTADATGFDGVVVVDGAAALFASTASSPLFPTGRPLQIFVDAYRWGKPVGVCGGKSSEVLDAADVPEDGDGVYSEESVDMFVEEFEKGLATFRFTDRFALDS | – | 48 ± 0.7 mM | 35 ± 0.5 mM | 34 ± 1.2 mM | 44 ± 0.4 mM | 40 mM | 31 ± 0.5 mM | 28400 ± 1100 s⁻¹ | 920000 ± 4500 M⁻¹ s⁻¹ | – |
| CATPO (Mycothermus thermophilus) (protein, recombinant, pET-28-TEV-CATPO; contains heme d; Rz 0.8) TCPFADPAALYSRQDTTSGQSPLAAYEVDDSTGYLTSDVGGPIQDQTSLKAGIRGPTLLEDFMFRQKIQHFDHERVPERAVHARGAGAHGTFTSYADWSNITAASFLNATGKQTPVFVRFSTVAGSRGSADTARDVHGFATRFYTDEGNFDIVGNNIPVFFIQDAIQFPDLIHSVKPRPDNEIPQAATAHDSAWDFFSQQPSTMHTLFWAMSGHGIPRSYRHMDGFGVHTFRFVKDDGSSKLIKWHFKSRQGKASLVWEEAQVLSGKNADFHRQDLWDAIESGNGPEWDVCVQIVDESQAQAFGFDLLDPTKIIPEEYAPLTKLGLLKLDRNPTNYFAETEQVMFQPGHIVRGIDFTEDPLLQGRLFSYLDTQLNRNGGPNFEQLPINMPRVPIHNNNRDGAGQMFIHRNKYPYTPNTLNSGYPRQANQNAGRGFFTAPGRTASGALVREVSPTFNDHWSQPRLFFNSLTPVEQQFLVNAMRFEISLVKSEEVKKNVLTQLNRVSHDVAVRVAAAIGLGAPDADDTYYHNNKTAGVSIVGSGPLPTIKTLRVGILATTSESSALDQAAQLRTRLEKDGLVVTVVAETLREGVDQTYSTADATGFDGVVVVDGAAALFASTASSPLFPTGRPLQIFVDAYRWGKPVGVCGGKSSEVLDAADVPEDGDGVYSEESVDMFVEEFEKGLATFRFTDRFALDS | – | 50 ± 1.5 mM | 36 ± 1.0 mM | 35 ± 0.3 mM | 45 ± 1.5 mM | – | – | – | – | Km [7]: 33 ± 0.5 mM; kcat [7]: 7300 ± 365 s⁻¹; kcat/Km [7]: 220000 ± 13000 M⁻¹ s⁻¹ |
